In US12545899B2, “Luciferase enzymes for use with thermostable luciferins in bioluminescent assays” (Promega Corporation, priority 2018, dated 2026):

Experiments:
[1] = Brightness of additional luciferase enzyme variants with CS0333; assay type: biochemical; details: for luminescence CS0333 BG / luminescence CS0333 DR / Fold improvement over ATG3707, CS0333 BG / Fold improvement over ATG3707, CS0333 DR: Table 7B
Procedure: (§1) Additional luciferase enzyme variants were generated and evaluated for their stability and activity. To evaluate the additional luciferase enzyme variants, 0.005 mg/ml luciferase enzyme variant was mixed with 1 mM ATP+1 mM substrate in either Bright-Glo™ (BG) or Detection Reagent (DR) buffers. […] (Table 7A is colored according to their relative luminescence values within each column across a red to green color spectrum with the lowest values colored red and the highest values colored green.)

[2] = Brightness of additional luciferase enzyme variants with CS0280; assay type: biochemical; details: for luminescence CS0280 BG / luminescence CS0280 DR / Fold improvement over ATG3707, CS0280 BG / Fold improvement over ATG3707, CS0280 DR: Table 7B
Procedure: as §1

[3] = Differential scanning fluorimetry (DSF) analysis; assay type: physicochemical; set-up: key to DSF Tm: melting temperature in °C (heated 30-95 °C at 1 °C/min); details: for DSF Tm (° C.): Table 7B
Procedure: (§2) To conduct the experiment, Sypro Orange (5000×) was diluted in water to 3× and combined with enzymes stored in 50 mM HEPES pH 7.5, 100 mM NaCl, 2 mM EDTA to a final concentration of 5×. Fluorescence was read at 60 second intervals as the reactions were heated at 1° C. per minute from 30-95° C. The change in fluorescence at each minute was calculated and plotted for each temperature in the range.
as §2, with “The luciferase enzyme variants generated were also evaluated using DSF analysis as shown in the representative results provided in Tables 7A and 7B above. To” for “To”, “the experiments,” for “the experiment,”, “in 20” for “in 50”, “7.5, 200” for “7.5, 100”, “NaCl, 1” for “NaCl, 2”

[4] = 1 mM CS0333, Detection Reagent buffer
[5] = 1 mM CS0280, Detection Reagent buffer

Row | Molecule | luminescence CS0333 BG ([1]; 1 mM CS0333, Bright-Glo buffer) | luminescence CS0333 DR [1, 4] | Fold improvement over ATG3707, CS0333 BG ([1]; Bright-Glo buffer) | Fold improvement over ATG3707, CS0333 DR ([1]; Detection Reagent buffer) | luminescence CS0280 BG ([2]; 1 mM CS0280, Bright-Glo buffer) | luminescence CS0280 DR [2, 5] | Fold improvement over ATG3707, CS0280 BG ([2]; Bright-Glo buffer) | Fold improvement over ATG3707, CS0280 DR ([2]; Detection Reagent buffer) | DSF Tm (° C.) [3] [°C] | Fold-improvement over ATG3707, CS0333 BG ([1]; Table 7A, 1 mM CS0333, Bright-Glo buffer) | Fold-improvement over ATG3707, CS0333 DR ([1]; Table 7A, 1 mM CS0333, Detection Reagent buffer) | Fold-improvement over ATG3707, CS0280 BG ([2]; Table 7A, 1 mM CS0280, Bright-Glo buffer) | Fold-improvement over ATG3707, CS0280 DR ([2]; Table 7A, 1 mM CS0280, Detection Reagent buffer) | DSF Tm ([3]; Table 7A)
1 | C9644H7: SEQ ID NO: 97; H244W+T344A+I396K+S193A+N228D+L305F+S306P+I109V+C38R+A316W+T342S+V348I (protein) MADKNILYGPEPFYPLEDGTAGEQMFDALSRYAAIPGRIALTNAHTKENVLYEEFLKLSCRLAESFKKYGLKQNDTIAVCSENSLQFFLPVIASLYLGIIVAPVNDKYVERELIHSLGIVKPRIVFCSKNTFQKVLNVKSKLKSIETIIILDLNEDLGGYQCLNNFISQNSDSNLDVKKFKPYSFNRDDQVAAIMFSSGTTGLPNGVMLTHKNIVARFSIAKDPTFGDAINPTSAILTVIPFHWGFGMMTTLGYFTCGFRVVLMHTFEEKLFLQSLQDYKVESTLLVPTLMAFLAKSALVEKYDFPHLKEIASGGWPLSKEIGEMVKKRFKLNFVRQGYGLSEATSAILITPKGDAKPGSTGKIVPLHAVKVVDPTTGKILGPNEPGELYFKGPMKMKGYYNNEEATKAIIDNDGWLRSGDIAYYDNDGHFYIVDRLKSLIKYKGYQVAPAEIEGILLQHPYIVDAGVTGIPDEAAGELPAAGVVVQTGKYLNEQIVQDYVASQVSTAKWLRGGVKFLDEIPKGSTGKIDRKVLRQMLEKHTNGHHHHHHHH | 15,784,700 | 11,887,900 | 2.97 | 2.79 | 1,642,120 | 83,763 | 2.07 | 2.87 | 59 | – | – | – | – | –
2 | C9649G7: SEQ ID NO: 98; H244W+T344A+I396K+S193A+N228D+L305F+S306P+I109V+C38R+F55I+K121Q+A316W+Y339M+T344I+V348I (protein) MADKNILYGPEPFYPLEDGTAGEQMFDALSRYAAIPGRIALTNAHTKENVLYEEILKLSCRLAESFKKYGLKQNDTIAVCSENSLQFFLPVIASLYLGIIVAPVNDKYVERELIHSLGIVKPRIVFCSKNTFQKVLNVKSKLKSIETIIILDLNEDLGGYQCLNNFISQNSDSNLDVKKFKPYSFNRDDQVAAIMFSSGTTGLPKGVMLTHKNIVARFSIAKDPTFGDAINPTSAILTVIPFHWGFGMMTTLGYFTCGFRVVLMHTFEEKLFLQSLQDYKVESTLLVPTLMAFLAKSALVEKYDFPHLKEIASGGWPLSKEIGEMVKKRFKLNFVRQGYGLSEATSAILITPKGDAKPGSTGKIVPLHAVKVVDPTTGKILGPNEPGELYFKGPMKMKGYYNNEEATKAIIDNDGWLRSGDIAYYDNDGHFYIVDRLKSLIKYKGYQVAPAEIEGILLQHPYIVDAGVTGIPDEAAGELPAAGVVVQTGKYLNEQIVQDYVASQVSTAKWLRGGVKFLDEIPKGSTGKIDRKVLRQMLEKHTNGHHHHHHHH | 13,322,000 | 11,733,600 | 2.50 | 2.75 | 7,501,350 | 891,010 | 9.46 | 30.48 | 51 | – | – | – | – | –
3 | C7573G10: SEQ ID NO: 69; H244W+T344A+I396K+S193A+N228D+L305F+S306P+I109V+A316M (protein) MADKNILYGPEPFYPLEDGTAGEQMFDALSRYAAIPGCIALTNAHTKENVLYEEFLKLSCRLAESFKKYGLKQNDTIAVCSENSLQFFLPVIASLYLGIIVAPVNDKYIERELIHSLGIVKPRIVFCSKNTFQKVLNVKSKLKSIETIIILDLNEDLGGYQCLNNFISQNSDSNLDVKKFKPYSFNRDDQVAAIMFSSGTTGLPKGVMLTHKNIVARFSIAKDPTFGNAINPTSAILTVIPFHHGFGMMTTLGYFTCGFRVVLMHTFEEKLFLQSLQDYKVESTLLVPTLMAFLAKSALVEKYDLSHLKEIASGGAPLSKEIGEMVKKRFKLNFVRQGYGLTETTSAVLITPKGDAKPGSTGKIVPLHAVKVVDPTTGKILGPNEPGELYFKGPMIMKGYYNNEEATKAIIDNDGWLRSGDIAYYDNDGHFYIVDRLKSLIKYKGYQVAPAEIEGILLQHPYIVDAGVTGIPDEAAGELPAAGVVVQTGKYLNEQIVQDYVASQVSTAKWLRGGVKFLDEIPKGSTGKIDRKVLRQMLEKHTNGHHHHHHHH | – | – | – | – | – | – | – | – | – | 2.81 | 2.09 | 14.12 | 19.49 | 62
